Assay [1] has as its target Vascular Endothelial Growth Factor Receptor 1 (VEGFR1) (mouse (endogenous in C57BL/6 and eNOS-KO skeletal muscle)) (UniProt P35969).
Assay [2] has the same target. This is another data set of the same source.
The target is the same in assay [3]. The source holds these as a separate data set.

UniProt P35969, sequence (P35969 23-1333 S1181G): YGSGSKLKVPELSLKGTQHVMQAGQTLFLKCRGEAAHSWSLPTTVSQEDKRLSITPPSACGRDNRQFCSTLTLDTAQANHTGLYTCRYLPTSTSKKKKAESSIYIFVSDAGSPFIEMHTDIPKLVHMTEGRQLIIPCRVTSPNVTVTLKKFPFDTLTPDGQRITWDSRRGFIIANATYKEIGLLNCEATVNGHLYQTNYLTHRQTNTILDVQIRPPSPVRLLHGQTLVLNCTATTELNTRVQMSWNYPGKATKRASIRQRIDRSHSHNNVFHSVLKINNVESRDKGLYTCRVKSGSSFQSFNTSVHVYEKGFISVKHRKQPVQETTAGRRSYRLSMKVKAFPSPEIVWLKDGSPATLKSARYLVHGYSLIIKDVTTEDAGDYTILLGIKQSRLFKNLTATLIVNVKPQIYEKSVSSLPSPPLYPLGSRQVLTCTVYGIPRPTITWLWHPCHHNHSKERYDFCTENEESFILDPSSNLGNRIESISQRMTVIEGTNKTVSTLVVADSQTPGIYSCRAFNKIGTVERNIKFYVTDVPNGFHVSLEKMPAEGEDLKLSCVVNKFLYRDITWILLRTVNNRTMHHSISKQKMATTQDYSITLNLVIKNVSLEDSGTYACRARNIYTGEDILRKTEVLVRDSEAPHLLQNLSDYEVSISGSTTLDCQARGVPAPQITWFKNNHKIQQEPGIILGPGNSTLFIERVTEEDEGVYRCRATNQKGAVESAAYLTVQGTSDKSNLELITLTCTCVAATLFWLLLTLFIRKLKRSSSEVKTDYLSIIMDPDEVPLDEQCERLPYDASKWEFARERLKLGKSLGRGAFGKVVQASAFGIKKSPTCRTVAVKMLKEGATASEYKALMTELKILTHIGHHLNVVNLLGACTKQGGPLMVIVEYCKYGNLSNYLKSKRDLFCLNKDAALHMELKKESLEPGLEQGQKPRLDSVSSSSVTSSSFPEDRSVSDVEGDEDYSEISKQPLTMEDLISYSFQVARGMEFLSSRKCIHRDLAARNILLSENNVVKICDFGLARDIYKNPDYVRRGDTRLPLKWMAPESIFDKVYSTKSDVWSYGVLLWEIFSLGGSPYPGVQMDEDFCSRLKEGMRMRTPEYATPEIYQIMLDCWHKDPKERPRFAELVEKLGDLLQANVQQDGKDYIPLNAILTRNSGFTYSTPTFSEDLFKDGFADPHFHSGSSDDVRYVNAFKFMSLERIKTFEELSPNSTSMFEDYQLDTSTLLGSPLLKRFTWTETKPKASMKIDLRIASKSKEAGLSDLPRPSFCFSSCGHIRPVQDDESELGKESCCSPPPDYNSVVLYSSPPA

In assay [1], “anti-angiogenic VEGF-A isoform VEGF165b (ligand)” yielded a pSTAT3 activation, eNOS-KO ischemic muscle treated with VEGF165b-Ab vs. IgG of 1.4 fold and a pVEGFR1(Y1333) activation in VEGFR1 pull-down fractions, eNOS-KO ischemic muscle treated with VEGF165b-Ab vs. IgG of 1.3 fold. In assay [2], this substance yielded a pSTAT3 activation, HFD-ischemic muscle treated with VEGF165b-Ab vs. IgG at day 3 post-HLI of 1.5 fold and a pVEGFR1(Y1333) activation, HFD-ischemic muscle treated with VEGF165b-Ab vs. IgG at day 3 post-HLI of 1.5 fold. This substance also registered a pVEGFR1(Y1333) activation in VEGFR1 pull-down fractions, non-ischemic HFD vs. non-ischemic normal chow muscle in assay [3] of 1.5 fold.
